Data on six molecules can be found in patent US20160303232A1 (Merrimack Pharmaceuticals, Inc., priority 2015, published 2016).

Entries after “also recorded” stand apart in the source; their conditions may differ. Structures can show the parent of a compound that is named as a salt.

The subject of data set [1] is NSCLC cell lines (A549, EKVX, H358, H322M, Calu-3, H661, H441, H1355, H430). Put plainly: 3D spheroid proliferation assay with or without HRG and chemotherapy. It is filed as cell-based, human. The conditions noted are these: 5 nM HRG; docetaxel 111 nM, pemetrexed 1111 nM; 96hrs; three cell lines most responsive to HRG. On the procedure: HRG-driven ErbB3 signaling mediates survival signaling through the PI3K/AKT pathway and has been implicated as a general mechanism that imparts insensitivity to cytotoxic chemotherapy. […] Proliferation was measured, in the presence or absence of HRG, in a panel of nine cell lines using 3D spheroid cultures.

For data set [2], the system named is human ovarian epithelial carcinoma OVCAR8 cells. As to the kind of experiment: OVCAR8 xenograft model of ovarian cancer, combination therapy study. It is filed as in vivo, mouse. To be noted: for tumor progression over time: FIGS. 7A-7C, monotherapy versus co-administration with fixed dose of seribantumab; for tumor growth, single agent: i.p., seribantumab 300 μg Q3D, irinotecan HCl 6.25 mg/kg Q7D, gemcitabine 25 mg/kg Q7D, paclitaxel 10 mg/kg Q7D, three weeks. The text has this: In these xenograft studies, the mice were obtained from Charles River Laboratories. The mice were housed in Tecniplast® Individually Ventilated polycarbonate (Makrolon®) Cages (IVC) set in climate-controlled rooms and had free access to food and acidified water. A cell suspension of 8×10^6 cells/mouse, mixed 1:1 in reduced growth factor Matrigel™ (BD Biosciences, Cat #354230) and PBS was implanted by subcutaneous injection into the left flank of female, 4-5 week old nu/nu nude, Crl:NU-Foxn1^nu mice. Tumors were allowed to reach 250 mm^3 in size before randomization.
Mice were randomized as above into 8 groups of 10 mice each. […] Treatment continued for three weeks. Tumors were measured twice weekly and tumor volume calculated.

Data set [3] in a line: Population pharmacokinetic analysis of seribantumab, combined phase I and phase II studies, two-compartment model. The format is in vivo, human. The text has this: Covariate selection evaluated potential relationships between baseline covariates (sex, race, age, weight, intended-dose, and study/indication) and volume of distribution and clearance. The results indicated significant relationships between weight, sex, and clearance, with the final parameter estimates provided in Table 1. […] In the presence of the relationship between weight and clearance, no significant relationship between volume (V) and weight (WT) were observed.

Data set [4] in a line: Clinical studies of seribantumab co-administered with full doses of chemotherapy (MTD, safety). It is filed as in vivo, human. The conditions noted are these: co-administered with standard doses of pemetrexed, paclitaxel or cabazitaxel; 40 mg/kg loading dose then weekly 20 mg/kg.
In data set [5] the test system is HRG positive (HRG+) tumors. Put plainly: Previous randomized phase II clinical trials of seribantumab plus standard of care, by HRG expression. It is filed as in vivo, human. The conditions noted are these: seribantumab added to standard-of-care therapy; patients with HRG expression at or above threshold / HRG+ tumors.
Setting [6] is: fixed effect, final population PK estimate, 499 patients.

For the molecule `Nc1nc(=O)c2c(CCc3ccc(C(=O)N[C@@H](CCC(=O)O)C(=O)O)cc3)c[nH]c2[nH]1` [pemetrexed, (2S)-2-{[4-[2-(2-amino-4-oxo-1,7-dihydropyrrolo[2,3-d]pyrimidin-5-yl)ethyl]benzoyl]amino}pentanedioic acid], the “effect of HRG on inhibition of cell viability by chemotherapy (HRG-induced resistance)” value in data set [1] is “induces resistance; also recorded: decreased”.

Turning to `Nc1ccn([C@@H]2O[C@H](CO)[C@@H](O)C2(F)F)c(=O)n1` [gemcitabine], in data set [2], the “tumor progression over time” value is “began to progress over time” and the “tumor growth, single agent” value is “inhibited tumor growth”.

For `CCc1c2c(nc3ccc(OC(=O)N4CCC(N5CCCCC5)CC4)cc13)-c1cc3c(c(=O)n1C2)COC(=O)[C@]3(O)CC` [irinotecan HCl], in data set [2], the “tumor progression over time” value is recorded as “began to progress over time” and the “tumor growth, single agent” value was “inhibited tumor growth”.

For the molecule `CC(=O)O[C@@]12CO[C@@H]1C[C@H](O)[C@@]1(C)C(=O)[C@H](O)C3=C(C)[C@@H](OC(=O)[C@H](O)[C@@H](NC(=O)OC(C)(C)C)c4ccccc4)C[C@@](O)([C@@H](OC(=O)c4ccccc4)[C@H]21)C3(C)C` [docetaxel, 1,7β,10β-trihydroxy-9-oxo-5β,20-epoxytax-11-ene-2α,4,13α-triyl 4-acetate 2-benzoate 13-{(2R,3S)-3-[(tert-butoxycarbonyl)amino]-2-hydroxy-3-phenylpropanoate}], the “effect of HRG on inhibition of cell viability by chemotherapy (HRG-induced resistance)” value in data set [1] is “induces resistance; also recorded: decreased”.

For `CC(=O)O[C@H]1C(=O)[C@@]2(C)[C@H]([C@H](OC(=O)c3ccccc3)[C@]3(O)C[C@H](OC(=O)[C@H](O)[C@@H](NC(=O)c4ccccc4)c4ccccc4)C(C)=C1C3(C)C)[C@]1(OC(C)=O)CO[C@@H]1C[C@@H]2O` [paclitaxel], in data set [2], the “tumor progression over time” value is reported as “began to progress over time” and the “tumor growth, single agent” value is “inhibited tumor growth”.

B1: seribantumab: human monoclonal anti-ErbB3 IgG2; heavy chain SEQ ID NO:7, light chain SEQ ID NO:8 (antibody, listed as Homo sapiens)
heavy: EVQLLESGGGLVQPGGSLRLSCAASGFTFSHYVMAWVRQAPGKGLEWVSSISSSGGWTLYADSVKGRFTISRDNSKNTLYLQMNSLRAEDTAVYYCTRGLKMATIFDYWGQGTLVTVSSASTKGPSVFPLAPCSRSTSESTAALGCLVKDYFPEPVTVSWNSGALTSGVHTFPAVLQSSGLYSLSSVVTVPSSNFGTQTYTCNVDHKPSNTKVDKTVERKCCVECPPCPAPPVAGPSVFLFPPKPKDTLMISRTPEVTCVVVDVSHEDPEVQFNWYVDGVEVHNAKTKPREEQFNSTFRVVSVLTVVHQDWLNGKEYKCKVSNKGLPAPIEKTISKTKGQPREPQVYTLPPSREEMTKNQVSLTCLVKGFYPSDIAVEWESNGQPENNYKTTPPMLDSDGSFFLYSKLTVDKSRWQQGNVFSCSVMHEALHNHYTQKSLSLSPGK
light: QSALTQPASVSGSPGQSITISCTGTSSDVGSYNVVSWYQQHPGKAPKLIIYEVSQRPSGVSNRFSGSKSGNTASLTISGLQTEDEADYYCCSYAGSSIFVIFGGGTKVTVLGQPKAAPSVTLFPPSSEELQANKATLVCLVSDFYPGAVTVAWKADGSPVKVGVETTKPSKQSNNKYAASSYLSLTPEQWKSHRSYSCRVTHEGSTVEKTVAPAECS
Take B1: in data set [3] (setting [6]), the CL is given as 3.15 L/wk, the Q is listed as 2.92 L/wk, the V is reported as 3.23 L and the V2 is 2.68 L. In data set [3] (random effect), the “Cov CL and V” value was 27%; the “Omega CL” value was found to be 36%; the “Omega V” value was 37%. Moreover, in data set [2], the “tumor growth, single agent” value was “significantly suppressed tumor growth”. For the same molecule, the “maximum tolerated dose (MTD)” value in data set [4] is given as “no MTD was identified; also recorded: no maximum tolerated dose (MTD) reached”. Also, the “progression-free survival (PFS)” value in data set [5] is reported as “improved progression-free survival; also recorded: increased PFS”.
